Laboratory results: paper PMC6309870

Target: T1, HA-CEBPD (C/EBP delta, NF-IL6beta) (UniProt P49716 1-269)
T1 sequence: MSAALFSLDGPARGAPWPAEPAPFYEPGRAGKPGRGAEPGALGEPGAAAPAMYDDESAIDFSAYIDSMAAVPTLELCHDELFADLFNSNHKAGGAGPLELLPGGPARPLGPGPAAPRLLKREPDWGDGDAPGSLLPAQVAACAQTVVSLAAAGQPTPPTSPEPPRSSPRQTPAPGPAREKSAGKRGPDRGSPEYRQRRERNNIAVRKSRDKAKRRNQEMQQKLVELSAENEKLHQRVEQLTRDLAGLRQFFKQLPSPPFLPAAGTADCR
Experiment: EMSA, supershift

B1: PTX3 promoter site 1 (dsDNA)
DNA 1: TTTAATATTGTGCAACTTCCAC
DNA 2: GTGGAAGTTGCACAATATTAAA
B1: binds.

B2: PTX3 promoter site 5 (dsDNA)
DNA 1: TAAAGGGTTGTGAAATAATAAC
DNA 2: GTTATTATTTCACAACCCTTTA
B2: binds.
